Drawing on patent US20130195901A1 (published 2013), this text covers EC50 for twelve molecules.

In experiment [1] the target is T1, HLA-A*0201 class I monomer of the iTopia Epitope Discovery System. The experiment can be described thus: iTopia peptide binding (ED50).
Experiment [2] addresses T1, HLA-A*0201 class I monomer of the …. The experiment in a line: iTopia binding ED50.
The target is the same in experiment [3]. The experiment in a line: iTopia binding ED50. The source holds these as a separate data set.
For experiment [4] the target is unchanged. The experiment can be described thus: iTopia binding ED50. The source holds these as a separate data set.
For experiment [5] the target is unchanged. The experiment can be described thus: iTopia binding ED50. This is another data set of the same source.
Experiment [6] has the same target. The experiment can be described thus: iTopia binding ED50. The source holds these as a separate data set.

ALWSIPVHPV [PSMA288-297 analog, Ala at P1, Trp at P3, Val at PΩ] showed a concentration giving a half-maximal response (EC50) in experiment [1] of 0.494 µM. In other words, the sub-micromolar range. Turning to GLPSIPVHLI [PSMA288-297 analog, Leu at PΩ-1], it took 0.586 µM to reach a half-maximal effect in experiment [2] (EC50). As to GLPSIPVHAI [PSMA288-297 analog, Ala at PΩ-1], the concentration for a half-maximal effect (EC50) in experiment [2] stood at 0.816 µM.

On to GLPSIPVHPL [PSMA288-297 analog, Leu at PΩ], for which it took 1.17 µM to reach a half-maximal effect in experiment [2] (EC50).

In the case of GVPSIPVHPI [PSMA288-297 analog, Val at P2], a half-maximal response in experiment [3] (EC50) required 2.41 µM. As for GLPSIPVHPI [PSMA288-297], the 50% effective concentration (EC50) in experiment [3], in experiment [4] and in experiment [5] was 1.33 µM throughout. Take GLPSIPVHTI [PSMA288-297 analog, Thr at PΩ-1]: in experiment [2], the half-maximal effective concentration (EC50) turned out to be 0.483 µM. This counts as sub-micromolar. The molecule GQPSIPVHPI [PSMA288-297 analog, Gln at P2] registered an EC50 in experiment [3] of 0.669 µM. The same measure, in the same setting: the same measure for GMPSIPVHPI [PSMA288-297 analog, Met at P2]: 1.07 µM. As to AVPSIPVHPV [PSMA288-297 analog, Ala at P1, Val at P2, Val at PΩ], the EC50 in experiment [5] came to 1.08 µM. As for GLPSIPVHSI [PSMA288-297 analog, Ser at PΩ-1], the concentration giving a half-maximal response (EC50) in experiment [2] worked out at 0.447 µM. In the case of ALPSIPVHPV [PSMA288-297 analog, Ala at P1 and Val at PΩ], the EC50 in experiment [6] is 5.97 µM.

What is called EC50 is the concentration that produces a half-maximal response. The low end stands for higher potency in that assay, the high end for lower potency in that assay.
